Assays:
[1] = test system: T1, DNA polymerase clone 1160 (uncultured hot spring virus (Great Boiling Spring)); settings: dNTP incorporation; background <500
T1 sequence: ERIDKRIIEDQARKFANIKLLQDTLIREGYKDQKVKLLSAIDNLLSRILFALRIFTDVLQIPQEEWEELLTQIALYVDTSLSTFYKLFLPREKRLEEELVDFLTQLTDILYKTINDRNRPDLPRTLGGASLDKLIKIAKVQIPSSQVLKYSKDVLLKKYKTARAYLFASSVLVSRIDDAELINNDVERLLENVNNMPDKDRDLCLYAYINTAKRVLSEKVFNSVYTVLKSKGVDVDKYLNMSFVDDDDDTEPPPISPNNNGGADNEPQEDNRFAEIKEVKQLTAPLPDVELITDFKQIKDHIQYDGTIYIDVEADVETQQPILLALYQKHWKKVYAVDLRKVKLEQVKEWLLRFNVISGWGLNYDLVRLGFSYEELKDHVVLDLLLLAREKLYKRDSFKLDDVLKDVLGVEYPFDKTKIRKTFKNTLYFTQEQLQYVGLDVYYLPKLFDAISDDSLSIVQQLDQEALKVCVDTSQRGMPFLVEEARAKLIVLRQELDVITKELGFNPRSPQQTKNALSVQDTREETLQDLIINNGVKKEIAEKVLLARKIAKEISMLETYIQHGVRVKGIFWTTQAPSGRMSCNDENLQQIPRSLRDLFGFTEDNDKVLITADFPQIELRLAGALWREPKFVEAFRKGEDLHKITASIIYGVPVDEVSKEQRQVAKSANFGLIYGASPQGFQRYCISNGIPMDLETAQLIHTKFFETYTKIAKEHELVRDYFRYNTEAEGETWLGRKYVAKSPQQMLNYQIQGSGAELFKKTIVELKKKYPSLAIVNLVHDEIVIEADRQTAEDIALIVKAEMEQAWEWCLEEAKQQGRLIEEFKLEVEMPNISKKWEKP

[2] = test system: T2, DNA polymerase clone 1937 (uncultured hot spring virus (Great Boiling Spring)); settings: dNTP incorporation; background <500
T2 sequence: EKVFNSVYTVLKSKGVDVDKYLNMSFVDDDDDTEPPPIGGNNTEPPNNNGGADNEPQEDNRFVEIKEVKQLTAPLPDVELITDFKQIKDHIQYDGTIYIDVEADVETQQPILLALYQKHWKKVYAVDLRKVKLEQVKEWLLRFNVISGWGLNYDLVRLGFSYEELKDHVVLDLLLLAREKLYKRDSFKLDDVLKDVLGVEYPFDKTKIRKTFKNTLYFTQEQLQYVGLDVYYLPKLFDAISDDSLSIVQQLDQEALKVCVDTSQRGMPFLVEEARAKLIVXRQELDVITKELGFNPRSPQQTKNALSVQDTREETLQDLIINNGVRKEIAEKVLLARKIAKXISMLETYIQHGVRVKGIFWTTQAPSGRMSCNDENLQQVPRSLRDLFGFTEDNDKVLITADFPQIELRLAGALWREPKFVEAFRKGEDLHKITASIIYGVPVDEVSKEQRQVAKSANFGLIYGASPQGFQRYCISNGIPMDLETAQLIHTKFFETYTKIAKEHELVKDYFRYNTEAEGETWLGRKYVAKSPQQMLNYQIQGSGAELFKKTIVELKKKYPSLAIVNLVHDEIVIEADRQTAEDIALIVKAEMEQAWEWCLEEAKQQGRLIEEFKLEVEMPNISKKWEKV

Substance activated calf thymus DNA has an activity [1] of 139000 cpm and an activity [2] of 70300 cpm.

Source: US20100291638
